Measurements reported in patent EP1260521B1.

Legend:
human IgE (human) = human IgE (human) (UniProt P01854); assay: 50% inhibition assay of IgE binding to FCEH
[1] = target: FCEH-bound IgE (human IgE loaded on FcERI alpha) (human) (UniProt P01854); assay: cell-based or functional assay
[2] = target: membrane IgE on U266 B1 cells (human) (UniProt P01854); assay: FACS on U266 B1 cells

Binder | IC50 (human IgE (human)) [µg/mL] | Var. X / IgL1H1 (human IgE (human)) | Var. X / MaE11 (human IgE (human)) | PBL Histamine Release (EC50) [1] [µg/mL] | EC50 [2] [µg/mL]
MaE 11 (antibody, from another filing, mouse IgG1, V domains shown) VH: DVQLQESGPGLVKPSQSLSLACSVTGYSITSGYSWNWIRQFPGNKLEWMGSITYDGSSNYNPSLKNRISVTRDTSQNQFFLKLNSATAEDTATYYCARGSHYFGHWHFAVWGAGTTVTVSS VL: DIVLTQSPASLAVSLGQRATISCKASQSVDYDGDSYMNWYQQKPGQPPILLIYAASYLGSEIPARFSGSGSGTDFTLNIHPVEEEDAATFYCQQSHEDPYTFGAGTKLEIK | 0.449 | 0.06 | 1 | > 100 | 0.15
MaE 13 (antibody, from another filing, mouse IgG1, V domains shown) VH: DVQLQESGPGLVKPSQSLSLTCTVTGYTITSDNAWNWIRQFPGNKLEWMGYINHSGTTSYNPSLKSRISITRDTSKNQFFLQLNSVTTEDTATYYCAWVVAYAMDYWGQGTSVTVSS VL: DIVMTQSQKFMSTSVGDRVSVTCKASQNVSSNVAWYQQKPGQSPKALIYSASYRYSGVPDRFTGSGSGTDFTLTISNVQSEDLAEYFCQQYYTYPLYTFGGGTKLEIKR | – | – | – | > 10 | 1
MaE 15 (antibody, from another filing, mouse IgG1, V domains shown) VH: DVQHQESEPDLVKPSQSLSLTCTVTGYSITSGYNRHWIRQFPGNKLEWMGYIHYSGSTNYNPSLKRRISITRDTSKNQFFLQLNSVTTEDTATYYCARGSIYYYGSRYRYFDVWGAGTTVTVSS VL: DIQLTQSPASLAVSLGQRATISCKASQSVDYDGDSYMNWYQQKPGQPPKLLIYAASNLESGIPARFSGSGSGTDFTLNIHPVEEEDAATYYCQQSNEDPFTFGAGT | – | – | – | > 100 | 6
